Measured values reported in patent US20060002951.

What was measured:
[1] = target: wild-type HIV-1 Gag expressed from the hGag plasmid
[2] = target: mutant Gag of ZWt-p6.Vif-, in which the nucleocapsid sequence has been replaced with a yeast leucine zipper domain
[3] = target: Gag of HIV-1 BH10 expressed from BH10.P-.Vif- or BH10.FS-.Vif- proviral DNA, P03347
[4] = target: HIV-1 Vif (virion infectivity factor)

B1: wild-type human APOBEC3G with a fused HA tag at the C-terminus (protein)
chain: MKPHFRNTVERMYRDTFSYNFYNRPILSRRNTVWLCYEVKTKGPSRPPLDAKIFRGQVYSELKYHPEMRFFHWFSKWRKLHRDQEYEVTWYISWSPCTKCTRDMATFLAEDPKVTLTIFVARLYYFWDPDYQEALRSLCQKRDGPRATMKIMNYDEFQHCWSKFVYSQRELFEPWNNLPKYYILLHIMLGEILRHSMDPPTFTFNFNNEPWVRGRHETYLCYEVERMHNDTWVLLNQRRGFLCNQAPHKHGFLEGRHAELCFLDVIPFWKLDLDQDYRVTCFTSWSPCFSCAQEMAKFISKNKHVSLCIFTARIYDDQGRCQEGLRTLAEAGAKISIMTYSEFKHCWDTFVDHQGCPFQPWDGLDEHSQDLSGRLRAILQNQEN
incorporation of APOBEC3G into Gag VLPs (Western blot of VLP lysates) [1]: Gag alone is sufficient among the viral proteins for facilitating APOBEC3G incorporation | share of APOBEC3G in the membrane-bound fraction (sucrose floatation assay) [1]: in the presence of Gag (FIG. 5B), >90% of APOBEC3G is localized in the membrane-bound protein | ability of the viruses to package APOBEC3G (Western blots of viral lysates) [2]: the ability of ZWt-p6.Vif- to incorporate APOBEC3G is reduced 90% compared with BH10.FS-.Vif- | distribution of APOBEC3G between cytoplasm and membrane (sucrose floatation assay) [2]: the majority of APOBEC3G remains in the cytoplasm even though most Gag is found at membrane | ability of the viruses to package APOBEC3G (Western blots of viral lysates) [3]: BH10.FS-.Vif- can package APOBEC3G as efficiently as BH10.P-

B2: HA-tagged APOBEC3G deletion mutant Δ1-156 (protein)
chain: MFQHCWSKFVYSQRELFEPWNNLPKYYILLHIMLGEILRHSMDPPTFTFNFNNEPWVRGRHETYLCYEVERMHNDTWVLLNQRRGFLCNQAPHKHGFLEGRHAELCFLDVIPFWKLDLDQDYRVTCFTSWSPCFSCAQEMAKFISKNKHVSLCIFTARIYDDQGRCQEGLRTLAEAGAKISIMTYSEFKHCWDTFVDHQGCPFQPWDGLDEHSQDLSGRLRAILQNQEN
incorporation into Gag VLPs (APOBEC3G:Gag ratio, Western blot) [1]: the deletion of the N-terminal 156 amino acids abolishes its incorporation into viruses | reduction in the ability to be degraded by Vif (ratio of expression with and without Vif, Western blot) [4]: the deletion of the N-terminal 156 or C-terminal 157-384 amino acids results in 80% and 90% reduction in the ability of the resulting fragments to be degraded by Vif, respectively

B3: HA-tagged APOBEC3G deletion mutant Δ157-384 (protein)
chain: MKPHFRNTVERMYRDTFSYNFYNRPILSRRNTVWLCYEVKTKGPSRPPLDAKIFRGQVYSELKYHPEMRFFHWFSKWRKLHRDQEYEVTWYISWSPCTKCTRDMATFLAEDPKVTLTIFVARLYYFWDPDYQEALRSLCQKRDGPRATMKIMNYDE
incorporation into Gag VLPs (APOBEC3G:Gag ratio, Western blot) [1]: deletion of the N-terminal 104 amino acids or the C-terminal 157-384 amino acids (See SEQ ID NO: 21) does not affect the ability of APOBEC3G to be packaged into Gag VLPs | viral content relative to wild type APOBEC3G (Gag VLPs, Western blot) [1]: the viral content of these N-terminal fragments is >60% of wild type APOBEC3G | cytoplasmic expression of full-length hA3G in the presence of Vif (Western blot with anti-HA) [4]: an increase in the cytoplasmic expression of full-length hA3G was detected with an increase in expression of hA3G 1-156 or hA3G 157-384, respectively

B4: HA-tagged APOBEC3G deletion mutant Δ1-104 (protein)
chain: MATFLAEDPKVTLTIFVARLYYFWDPDYQEALRSLCQKRDGPRATMKIMNYDEFQHCWSKFVYSQRELFEPWNNLPKYYILLHIMLGEILRHSMDPPTFTFNFNNEPWVRGRHETYLCYEVERMHNDTWVLLNQRRGFLCNQAPHKHGFLEGRHAELCFLDVIPFWKLDLDQDYRVTCFTSWSPCFSCAQEMAKFISKNKHVSLCIFTARIYDDQGRCQEGLRTLAEAGAKISIMTYSEFKHCWDTFVDHQGCPFQPWDGLDEHSQDLSGRLRAILQNQEN
incorporation into Gag VLPs (APOBEC3G:Gag ratio, Western blot) [1]: deletion of the N-terminal 104 amino acids or the C-terminal 157-384 amino acids (See SEQ ID NO: 21) does not affect the ability of APOBEC3G to be packaged into Gag VLPs

B5: HA-tagged APOBEC3G deletion mutant Δ246-384 (protein)
chain: MKPHFRNTVERMYRDTFSYNFYNRPILSRRNTVWLCYEVKTKGPSRPPLDAKIFRGQVYSELKYHPEMRFFHWFSKWRKLHRDQEYEVTWYISWSPCTKCTRDMATFLAEDPKVTLTIFVARLYYFWDPDYQEALRSLCQKRDGPRATMKIMNYDEFQHCWSKFVYSQRELFEPWNNLPKYYILLHIMLGEILRHSMDPPTFTFNFNNEPWVRGRHETYLCYEVERMHNDTWVLLNQRRGFLCNQ
viral content relative to wild type APOBEC3G (Gag VLPs, Western blot) [1]: the viral content of these N-terminal fragments is >60% of wild type APOBEC3G

B6: HA-tagged APOBEC3G deletion mutant Δ309-384 (protein)
chain: MKPHFRNTVERMYRDTFSYNFYNRPILSRRNTVWLCYEVKTKGPSRPPLDAKIFRGQVYSELKYHPEMRFFHWFSKWRKLHRDQEYEVTWYISWSPCTKCTRDMATFLAEDPKVTLTIFVARLYYFWDPDYQEALRSLCQKRDGPRATMKIMNYDEFQHCWSKFVYSQRELFEPWNNLPKYYILLHIMLGEILRHSMDPPTFTFNFNNEPWVRGRHETYLCYEVERMHNDTWVLLNQRRGFLCNQAPHKHGFLEGRHAELCFLDVIPFWKLDLDQDYRVTCFTSWSPCFSCAQEMAKFISKNKHVSLC
viral content relative to wild type APOBEC3G (Gag VLPs, Western blot) [1]: the viral content of these N-terminal fragments is >60% of wild type APOBEC3G
